# Results published in the supplement of paper PMC10724198.
# ± gives the standard deviation of the averaged measurements.
# Test system: Saccharomyces cerevisiae
# Assay: protein stability index of tFT-peptide fusion (C-terminal peptide) (PSI (0-1 scale)); higher = more stable (slower turnover)
# Conditions: genetic background: wild type; temperature: 30 C
# Protocol: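 Multiplexed protein stability (MPS) profiling in S. cerevisiae. Random 12-aa peptides (tFT-X12 library) are fused to the C-terminus of a sfGFP-mCherry tandem fluorescent timer, after mCherry and a GGGS linker. Cells are FACS-sorted into 8 mCherry/sfGFP bins and deep-sequenced. The protein stability index (PSI) is the read-weighted bin average, scaled from 0 (unstable) to 1 (stable). Only peptides with >10 reads are reported; cells were grown at 30 °C in SC-His with glucose.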
# 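Also: PSI is a weighted mean of sequencing reads over stability bins, variants kept only with over 10 reads, mCherry proximal and sfGFP distal, peptide attached via GGGS linker.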
row,Sequence,protein stability index
1,AAALPSNLLSSF,0.656 ± 0.017
2,AACSCGCLTGVG,0.527 ± 0.012
3,AALVFPSCVVGG,0.60949 ± 0.00034
4,AAPAAPATPSPR,0.716 ± 0.065
5,AAPDSGTPPLAA,0.6435 ± 0.0043
6,AAPPAYGPPPPP,0.6974 ± 0.0025
7,AARWHEPLSRER,0.699 ± 0.029
8,AAVRGAYPDSEG,0.64 ± 0.043
9,AAWPYKYYLAHI,0.617 ± 0.061
10,ACGLGGPSDIDN,0.672 ± 0.013
11,ACGSRGGQTERP,0.7143 ± 0.0066
12,ACPPRPPFRSPS,0.698 ± 0.026
13,ADKIPHSDNRSR,0.697 ± 0.01
14,ADLTTPHPDPRP,0.674 ± 0.0096
15,AEKKEERQRTSN,0.681 ± 0.032
16,AEKSYRYIYGKT,0.669 ± 0.029
17,AELVVRNGVGGI,0.831 ± 0.077
18,AERARRERRGGV,0.712 ± 0.1
19,AERKTKASRRKE,0.654 ± 0.019
20,AESCRASVVFGV,0.6849 ± 0.0041
21,AESLGLNYGSVY,0.657 ± 0.05
22,AFCFCIFSSFLV,0.535 ± 0.021
23,AFFLHKTFRSSF,0.732 ± 0.028
24,AFGSVSLSCLWV,0.676 ± 0.073
25,AFPSLRSLPLFS,0.608 ± 0.024

row,Sequence,protein stability index
1,AFPSPPATPSSQ,0.645 ± 0.079
2,AFRCGGAPGDFA,0.654 ± 0.0094
3,AFRISLSCPISL,0.619 ± 0.056
4,AFTPGTTVYVSQ,0.699 ± 0.037
5,AFYGDNNTVERM,0.762 ± 0.053
6,AGAGLGGVLGWW,0.671 ± 0.02
7,AGARPEGPRWGE,0.703 ± 0.021
8,AGESPDLSARCG,0.661 ± 0.11
9,AGFCRVFSYDFV,0.708 ± 0.04
10,AGGAASWPAFFP,0.793 ± 0.02
11,AGGGARLGVGRA,0.637 ± 0.065
12,AGGGLGAEGCGG,0.788 ± 0.038
13,AGGGLGGGGGGP,0.729 ± 0.031
14,AGGLCEGGWRGR,0.6885 ± 0.0035
15,AGGQRCNWGNTI,0.6778 ± 0.0053
16,AGGRGVPSMGNG,0.644 ± 0.033
17,AGGVEGRRRVGE,0.642 ± 0.073
18,AGHFITRTGGPT,0.7 ± 0.07
19,AGHFRVRWGVWS,0.651 ± 0.056
20,AGHILSDGTYLP,0.826 ± 0.13
21,AGISSLLVQSVP,0.679 ± 0.049
22,AGMRRRGGAGGW,0.684 ± 0.052
23,AGPAIEGARAPR,0.7684 ± 0.0022
24,AGPATSSSPPVS,0.688 ± 0.032
25,AGPGGSGGAGEP,0.68 ± 0.026

row,Sequence,protein stability index
1,AGQWGCAGGGEW,0.703 ± 0.013
2,AGRRASGRVGSG,0.728 ± 0.018
3,AGTIRTTPLTAL,0.643 ± 0.033
4,AGVTGGDGYGRW,0.583 ± 0.064
5,AGVVRGGRGVGI,0.728 ± 0.025
6,AGWCKGMWVSLG,0.656 ± 0.036
7,AGWKGGTSRGER,0.6618 ± 0.0053
8,AHTPGTHLGRKT,0.71 ± 0.0082
9,AICRVGGFGRKD,0.717 ± 0.01
10,AIIKADKIRRKK,0.6751 ± 0.0028
11,AIKCSDTLLTWV,0.7194 ± 0.0042
12,AILSTSHSPWNS,0.737 ± 0.053
13,AINAHGISKSYA,0.688 ± 0.019
14,AIRIERLGLAIP,0.682 ± 0.033
15,AIRLFFRSDARG,0.618 ± 0.014
16,AKEIVYAPRNPD,0.645 ± 0.053
17,AKKKEIQSTKHK,0.705 ± 0.0093
18,AKPPLAPSRNAL,0.656 ± 0.029
19,AKSKALGLSPRS,0.649 ± 0.046
20,AKTQGLLMVTLQ,0.712 ± 0.12
21,ALASPIPCPPPP,0.715 ± 0.056
22,ALCEIWQSLLLA,0.456 ± 0.13
23,ALFLFGSDRFFV,0.747 ± 0.026
24,ALFNEVFRSLLL,0.712 ± 0.054
25,ALFPNALYQTLL,0.723 ± 0.05

row,Sequence,protein stability index
1,ALFTFFSARLTR,0.748 ± 0.044
2,ALGGPPLSPSPH,0.7299 ± 0.007
3,ALHHPPLPHPRS,0.663 ± 0.084
4,ALIFPLPASSTF,0.609 ± 0.038
5,ALIYMRGLGRFF,0.555 ± 0.025
6,ALLPLTHLPLHP,0.666 ± 0.1
7,ALLPPPCFFLLP,0.673 ± 0.0041
8,ALLPVLPSRPAP,0.7431 ± 0.0046
9,ALLRSLSSLPLV,0.602 ± 0.011
10,ALLSFVVSSGPA,0.675 ± 0.026
11,ALMEFLVFSRCG,0.642 ± 0.074
12,ALPETKVSRRQS,0.677 ± 0.11
13,ALPIVPDVCFSP,0.679 ± 0.051
14,ALPPIARPPPRV,0.733 ± 0.029
15,ALPRAPSRPPAR,0.67 ± 0.042
16,ALPSALPPLPPP,0.723 ± 0.055
17,ALRFLISCRLLD,0.62622 ± 0.00026
18,ALRGSYTSFALA,0.623 ± 0.066
19,ALSTFTGFLRIP,0.55 ± 0.01
20,ALVGMNVQRRRV,0.705 ± 0.018
21,ALVRVVRGIGFC,0.697 ± 0.062
22,ALWWRVGCGVGL,0.657 ± 0.042
23,AMAELVCVSLRC,0.536 ± 0.016
24,ANAPPTASFSPP,0.6745 ± 0.0014
25,ANEAAYICKGNG,0.682 ± 0.039

row,Sequence,protein stability index
1,APDPARPSTRPL,0.6892 ± 0.0058
2,APGACWKERWVR,0.737 ± 0.037
3,APGPPLLLPPPL,0.697 ± 0.1
4,APGWNNMALDVD,0.728 ± 0.021
5,APHYPTGPTVKI,0.692 ± 0.033
6,APLLAPPPPSRT,0.642 ± 0.009
7,APLPPRSALVGL,0.6759 ± 0.0011
8,APPDQPEEGTRA,0.6332 ± 0.0033
9,APPEAPQEPLTL,0.727 ± 0.0092
10,APPFRLLPLPSP,0.7573 ± 0.005
11,APPLSLPPRLFL,0.69 ± 0.035
12,APPPAYGPPPPP,0.692 ± 0.044
13,APPPPFCHAPTS,0.6366 ± 0.00082
14,APPPSLHCLRLP,0.725 ± 0.071
15,APPRLSPLPPPP,0.6848 ± 0.0065
16,APPRPPPPSPIP,0.726 ± 0.057
17,APPRSPLFSSLF,0.638 ± 0.01
18,APPTPPHPRPSS,0.7269 ± 0.0036
19,APPTTPPPGTHP,0.696 ± 0.069
20,APRPAPRPTPLG,0.706 ± 0.051
21,APRPPPCPRPGT,0.7499 ± 0.003
22,APRPRSPLLPPA,0.648 ± 0.019
23,APSPLLPPHSPP,0.612 ± 0.043
24,APSVSHAPSRLL,0.706 ± 0.023
25,APVHPPPGFLLP,0.695 ± 0.023

row,Sequence,protein stability index
1,APVTFDKSHVST,0.669 ± 0.031
2,APYPVSRGLLGF,0.656 ± 0.057
3,AQAEGLYRGTAD,0.657 ± 0.011
4,AQAPVDPTPVPL,0.658 ± 0.11
5,AQCAFIKAGVTW,0.686 ± 0.051
6,AQCDAVPFMFCV,0.663 ± 0.025
7,AQPFATTGGGLV,0.69 ± 0.24
8,AQPRGLLVCPFL,0.664 ± 0.044
9,AQRGSTAASAGG,0.683 ± 0.07
10,AQTRSVGWEFGY,0.685 ± 0.0093
11,ARASPPARRSPT,0.673 ± 0.058
12,ARCLTGFYSFTF,0.794 ± 0.019
13,AREEGRQNQGMP,0.665 ± 0.042
14,ARFGYYLGLGRC,0.748 ± 0.065
15,ARGGIGTCSWGG,0.727 ± 0.0095
16,ARHPLCLPVLLT,0.548 ± 0.02
17,ARIWLGSTSVSR,0.739 ± 0.14
18,ARLPLPGSPPFS,0.719 ± 0.0029
19,ARLPTYLAAPPP,0.726 ± 0.089
20,ARMPQVSEIALC,0.6612 ± 0.00024
21,ARQHGLELTNPR,0.678 ± 0.015
